The assay addresses T1, 6XHis-tagged TgIST-R2 (G365-S420).
T1 chain: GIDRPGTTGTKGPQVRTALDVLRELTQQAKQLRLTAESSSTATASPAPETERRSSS
Description: nickel affinity copurification, SDS-PAGE, Coomassie blue band quantification. Particulars: chain shown with the change;; parent: est. 1.0; read off a plot.

The source of these data is article PMC9279507.

B1: STAT1cc (STAT1 core fragment, A656C and N658C, locked dimer), tag-free, P42224 D672A (protein)
chain: MSQWYELQQLDSKFLEQVHQLYDDSFPMEIRQYLAQWLEKQDWEHAANDVSFATIRFHDLLSQLDDQYSRFSLENNFLLQHNIRKSKRNLQDNFQEDPIQMSMIIYSCLKEERKILENAQRFNQAQSGNIQSTVMLDKQKELDSKVRNVKDKVMCIEHEIKSLEDLQDEYDFKCKTLQNREHETNGVAKSDQKQEQLLLKKMYLMLDNKRKEVVHKIIELLNVTELTQNALINDELVEWKRRQQSACIGGPPNACLDQLQNWFTIVAESLQQVRQQLKKLEELEQKYTYEHDPITKNKQVLWDRTFSLFQQLIQSSFVVERQPCMPTHPQRPLVLKTGVQFTVKLRLLVKLQELNYNLKVKVLFDKDVNERNTVKGFRKFNILGTHTKVMNMEESTNGSLAAEFRHLQLKEQKNAGTRTNEGPLIVTEELHSLSFETQLCQPGLVIDLETTSLPVVVISNVSQLPSGWASILWYNMLVAEPRNLSFFLTPPCARWAQLSEVLSWQFSSVTKRGLNVDQLNMLGEKLLGPNASPDGLIPWTRFCKENINDKNFPFWLWIESILELIKKHLLPLWNDGCIMGFISKERERALLKDQQPGTFLLRFSESSREGAITFTWVERSQNGGEPDFHAVEPYTKKELSAVTFPDIIRNYKVMAAENIPENPLKYLYPNIAKDHAFGKYYSRPKEAPEPMELDGPKGTGYIKTELISVSEVHPSRLQTTDNLLPMSPEEFDEVSRIVGSVEFDSMMNTV
As for B1, the ratio to parent came out at 0.93.

B2: STAT1cc (STAT1 core fragment, A656C and N658C, locked dimer), tag-free, P42224 E632A (protein)
chain: MSQWYELQQLDSKFLEQVHQLYDDSFPMEIRQYLAQWLEKQDWEHAANDVSFATIRFHDLLSQLDDQYSRFSLENNFLLQHNIRKSKRNLQDNFQEDPIQMSMIIYSCLKEERKILENAQRFNQAQSGNIQSTVMLDKQKELDSKVRNVKDKVMCIEHEIKSLEDLQDEYDFKCKTLQNREHETNGVAKSDQKQEQLLLKKMYLMLDNKRKEVVHKIIELLNVTELTQNALINDELVEWKRRQQSACIGGPPNACLDQLQNWFTIVAESLQQVRQQLKKLEELEQKYTYEHDPITKNKQVLWDRTFSLFQQLIQSSFVVERQPCMPTHPQRPLVLKTGVQFTVKLRLLVKLQELNYNLKVKVLFDKDVNERNTVKGFRKFNILGTHTKVMNMEESTNGSLAAEFRHLQLKEQKNAGTRTNEGPLIVTEELHSLSFETQLCQPGLVIDLETTSLPVVVISNVSQLPSGWASILWYNMLVAEPRNLSFFLTPPCARWAQLSEVLSWQFSSVTKRGLNVDQLNMLGEKLLGPNASPDGLIPWTRFCKENINDKNFPFWLWIESILELIKKHLLPLWNDGCIMGFISKERERALLKDQQPGTFLLRFSESSREGAITFTWVERSQNGGEPDFHAVAPYTKKELSAVTFPDIIRNYKVMAAENIPENPLKYLYPNIDKDHAFGKYYSRPKEAPEPMELDGPKGTGYIKTELISVSEVHPSRLQTTDNLLPMSPEEFDEVSRIVGSVEFDSMMNTV
With B2, the ratio to parent came to 0.57.

B3: STAT1cc (STAT1 core fragment, A656C and N658C, locked dimer), tag-free, P42224 D674A (protein)
chain: MSQWYELQQLDSKFLEQVHQLYDDSFPMEIRQYLAQWLEKQDWEHAANDVSFATIRFHDLLSQLDDQYSRFSLENNFLLQHNIRKSKRNLQDNFQEDPIQMSMIIYSCLKEERKILENAQRFNQAQSGNIQSTVMLDKQKELDSKVRNVKDKVMCIEHEIKSLEDLQDEYDFKCKTLQNREHETNGVAKSDQKQEQLLLKKMYLMLDNKRKEVVHKIIELLNVTELTQNALINDELVEWKRRQQSACIGGPPNACLDQLQNWFTIVAESLQQVRQQLKKLEELEQKYTYEHDPITKNKQVLWDRTFSLFQQLIQSSFVVERQPCMPTHPQRPLVLKTGVQFTVKLRLLVKLQELNYNLKVKVLFDKDVNERNTVKGFRKFNILGTHTKVMNMEESTNGSLAAEFRHLQLKEQKNAGTRTNEGPLIVTEELHSLSFETQLCQPGLVIDLETTSLPVVVISNVSQLPSGWASILWYNMLVAEPRNLSFFLTPPCARWAQLSEVLSWQFSSVTKRGLNVDQLNMLGEKLLGPNASPDGLIPWTRFCKENINDKNFPFWLWIESILELIKKHLLPLWNDGCIMGFISKERERALLKDQQPGTFLLRFSESSREGAITFTWVERSQNGGEPDFHAVEPYTKKELSAVTFPDIIRNYKVMAAENIPENPLKYLYPNIDKAHAFGKYYSRPKEAPEPMELDGPKGTGYIKTELISVSEVHPSRLQTTDNLLPMSPEEFDEVSRIVGSVEFDSMMNTV
With B3, the ratio to parent worked out at 0.9.

B4: STAT1cc (STAT1 core fragment, A656C and N658C, locked dimer), tag-free, P42224 S620A (protein)
chain: MSQWYELQQLDSKFLEQVHQLYDDSFPMEIRQYLAQWLEKQDWEHAANDVSFATIRFHDLLSQLDDQYSRFSLENNFLLQHNIRKSKRNLQDNFQEDPIQMSMIIYSCLKEERKILENAQRFNQAQSGNIQSTVMLDKQKELDSKVRNVKDKVMCIEHEIKSLEDLQDEYDFKCKTLQNREHETNGVAKSDQKQEQLLLKKMYLMLDNKRKEVVHKIIELLNVTELTQNALINDELVEWKRRQQSACIGGPPNACLDQLQNWFTIVAESLQQVRQQLKKLEELEQKYTYEHDPITKNKQVLWDRTFSLFQQLIQSSFVVERQPCMPTHPQRPLVLKTGVQFTVKLRLLVKLQELNYNLKVKVLFDKDVNERNTVKGFRKFNILGTHTKVMNMEESTNGSLAAEFRHLQLKEQKNAGTRTNEGPLIVTEELHSLSFETQLCQPGLVIDLETTSLPVVVISNVSQLPSGWASILWYNMLVAEPRNLSFFLTPPCARWAQLSEVLSWQFSSVTKRGLNVDQLNMLGEKLLGPNASPDGLIPWTRFCKENINDKNFPFWLWIESILELIKKHLLPLWNDGCIMGFISKERERALLKDQQPGTFLLRFSESSREGAITFTWVERAQNGGEPDFHAVEPYTKKELSAVTFPDIIRNYKVMAAENIPENPLKYLYPNIDKDHAFGKYYSRPKEAPEPMELDGPKGTGYIKTELISVSEVHPSRLQTTDNLLPMSPEEFDEVSRIVGSVEFDSMMNTV
Take B4: the ratio to parent turned out to be 0.8.

B5: STAT1cc (STAT1 core fragment, A656C and N658C, locked dimer), tag-free, P42224 M654A (protein)
chain: STVMLDKQKELDSKVRNVKDKVMCIEHEIKSLEDLQDEYDFKCKTLQNREHETNGVAKSDQKQEQLLLKKMYLMLDNKRKEVVHKIIELLNVTELTQNALINDELVEWKRRQQSACIGGPPNACLDQLQNWFTIVAESLQQVRQQLKKLEELEQKYTYEHDPITKNKQVLWDRTFSLFQQLIQSSFVVERQPCMPTHPQRPLVLKTGVQFTVKLRLLVKLQELNYNLKVKVLFDKDVNERNTVKGFRKFNILGTHTKVMNMEESTNGSLAAEFRHLQLKEQKNAGTRTNEGPLIVTEELHSLSFETQLCQPGLVIDLETTSLPVVVISNVSQLPSGWASILWYNMLVAEPRNLSFFLTPPCARWAQLSEVLSWQFSSVTKRGLNVDQLNMLGEKLLGPNASPDGLIPWTRFCKENINDKNFPFWLWIESILELIKKHLLPLWNDGCIMGFISKERERALLKDQQPGTFLLRFSESSREGAITFTWVERSQNGGEPDFHAVEPYTKKELSAVTFPDIIRNYKVAACECIPENPLKYLYPNIDKDHAFGKYYSRPKEAPEPMELDGPKGTGYIKTELISVSEVH
Regarding B5, the ratio to parent is 0.04.

B6: STAT1cc (STAT1 core fragment, A656C and N658C, locked dimer), tag-free, P42224 D627A (protein)
chain: STVMLDKQKELDSKVRNVKDKVMCIEHEIKSLEDLQDEYDFKCKTLQNREHETNGVAKSDQKQEQLLLKKMYLMLDNKRKEVVHKIIELLNVTELTQNALINDELVEWKRRQQSACIGGPPNACLDQLQNWFTIVAESLQQVRQQLKKLEELEQKYTYEHDPITKNKQVLWDRTFSLFQQLIQSSFVVERQPCMPTHPQRPLVLKTGVQFTVKLRLLVKLQELNYNLKVKVLFDKDVNERNTVKGFRKFNILGTHTKVMNMEESTNGSLAAEFRHLQLKEQKNAGTRTNEGPLIVTEELHSLSFETQLCQPGLVIDLETTSLPVVVISNVSQLPSGWASILWYNMLVAEPRNLSFFLTPPCARWAQLSEVLSWQFSSVTKRGLNVDQLNMLGEKLLGPNASPDGLIPWTRFCKENINDKNFPFWLWIESILELIKKHLLPLWNDGCIMGFISKERERALLKDQQPGTFLLRFSESSREGAITFTWVERSQNGGEPAFHAVEPYTKKELSAVTFPDIIRNYKVMACECIPENPLKYLYPNIDKDHAFGKYYSRPKEAPEPMELDGPKGTGYIKTELISVSEVH
For the molecule B6, the ratio to parent turned out to be 0.04.
